Reference: patent US12613245 (CORNELL UNIVERSITY, dated 2026)

T1: recombinant/purified KIAA1199/CEMIP protein (amino acids 1-649) (human, UniProt Q8WUJ3 31-649)
T1 construct: Truncated CEMIP used as immunogen and as ELISA antigen; also called truncated version of KIAA1199/CEMIP protein
T1 sequence: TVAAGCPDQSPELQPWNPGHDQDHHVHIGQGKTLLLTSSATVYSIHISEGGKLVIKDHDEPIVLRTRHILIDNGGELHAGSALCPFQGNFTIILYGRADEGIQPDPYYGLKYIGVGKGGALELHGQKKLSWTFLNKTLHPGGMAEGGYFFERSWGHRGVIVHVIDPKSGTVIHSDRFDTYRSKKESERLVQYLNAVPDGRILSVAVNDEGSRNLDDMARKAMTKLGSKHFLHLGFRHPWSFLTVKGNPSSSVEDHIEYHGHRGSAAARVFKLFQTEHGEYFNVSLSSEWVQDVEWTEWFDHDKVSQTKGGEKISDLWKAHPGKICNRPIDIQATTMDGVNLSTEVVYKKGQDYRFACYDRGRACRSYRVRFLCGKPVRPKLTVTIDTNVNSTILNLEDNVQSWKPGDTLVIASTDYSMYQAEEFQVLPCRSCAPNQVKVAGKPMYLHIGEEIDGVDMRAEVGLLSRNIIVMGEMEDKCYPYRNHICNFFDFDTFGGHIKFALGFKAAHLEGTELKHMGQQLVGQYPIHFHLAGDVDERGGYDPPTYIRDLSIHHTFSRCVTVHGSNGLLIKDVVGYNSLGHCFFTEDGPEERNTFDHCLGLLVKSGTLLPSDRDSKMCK

T2: native cell surface CEMIP/KIAA1199 on human MKN45 gastric and N2LA lung cancer cells (human, UniProt Q8WUJ3 31-1361)
T2 construct: Endogenous CEMIP on live CEMIP-high human cell lines (MKN45, N2LA), the target in flow cytometry; also called native CEMIP expressed on the surface
T2 sequence: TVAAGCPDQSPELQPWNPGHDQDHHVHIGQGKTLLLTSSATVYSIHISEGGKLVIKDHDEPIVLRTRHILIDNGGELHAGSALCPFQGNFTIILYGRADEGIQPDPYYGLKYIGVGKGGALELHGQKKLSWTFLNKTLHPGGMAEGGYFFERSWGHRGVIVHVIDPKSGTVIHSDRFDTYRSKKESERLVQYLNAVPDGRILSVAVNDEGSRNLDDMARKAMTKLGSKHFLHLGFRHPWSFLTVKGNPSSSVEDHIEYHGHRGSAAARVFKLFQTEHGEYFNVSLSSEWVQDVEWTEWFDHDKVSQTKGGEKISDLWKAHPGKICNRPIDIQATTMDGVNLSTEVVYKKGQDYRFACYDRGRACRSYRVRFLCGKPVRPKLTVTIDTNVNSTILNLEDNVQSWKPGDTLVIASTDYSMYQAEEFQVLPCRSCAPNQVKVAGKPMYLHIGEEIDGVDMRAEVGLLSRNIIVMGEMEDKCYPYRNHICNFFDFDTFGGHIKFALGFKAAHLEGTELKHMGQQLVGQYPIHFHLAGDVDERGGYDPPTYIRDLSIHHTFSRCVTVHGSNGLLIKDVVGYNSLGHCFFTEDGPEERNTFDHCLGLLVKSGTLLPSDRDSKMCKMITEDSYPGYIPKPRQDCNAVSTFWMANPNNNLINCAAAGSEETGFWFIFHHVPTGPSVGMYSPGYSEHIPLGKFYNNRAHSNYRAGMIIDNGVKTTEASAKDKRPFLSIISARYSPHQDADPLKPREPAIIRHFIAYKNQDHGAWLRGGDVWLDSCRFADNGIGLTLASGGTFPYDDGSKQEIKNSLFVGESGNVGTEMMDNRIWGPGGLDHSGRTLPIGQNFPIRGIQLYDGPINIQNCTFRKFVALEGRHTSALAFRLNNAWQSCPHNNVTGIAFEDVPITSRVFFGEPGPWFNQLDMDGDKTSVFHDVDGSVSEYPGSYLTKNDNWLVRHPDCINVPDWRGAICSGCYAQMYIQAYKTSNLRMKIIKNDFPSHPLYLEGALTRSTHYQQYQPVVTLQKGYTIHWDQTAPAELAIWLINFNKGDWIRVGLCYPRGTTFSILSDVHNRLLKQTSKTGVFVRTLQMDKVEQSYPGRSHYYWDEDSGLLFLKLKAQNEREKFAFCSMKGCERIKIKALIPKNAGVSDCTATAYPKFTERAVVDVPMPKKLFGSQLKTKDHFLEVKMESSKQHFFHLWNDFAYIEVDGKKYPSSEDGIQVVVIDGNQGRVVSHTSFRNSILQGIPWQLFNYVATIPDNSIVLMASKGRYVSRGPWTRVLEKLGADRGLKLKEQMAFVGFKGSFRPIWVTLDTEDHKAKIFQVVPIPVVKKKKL


How the values were obtained:
[1] = target: T1, recombinant/purified KIAA1199/CEMIP …; assay: ELISA on recombinant CEMIP, purified antibody (with flow cytometry as second assay)
[2] = target: T2, native cell surface CEMIP/KIAA1199 on …; assay: flow cytometry on MKN45 cells
[3] = target: T2, native cell surface CEMIP/KIAA1199 on …; assay: flow cytometry on live MKN45 and N2LA cells, purified antibody
Experimental: The binding of anti-CEMIP antibodies to native CEMIP expressed on the surface of human MKN45 gastric and N2LA lung cancer cell lines is shown.
Purified monoclonal antibodies were tested in secondary flow-cytometry screens on 2 CEMIPhi cell lines, MKN45 and N2LA (FIG. 13). Flow cytometry is performed on live cells, and antibodies bind to the native cell surface CEMIP/KIAA1199. Three antibody clones with high affinity and specificity for human KIAA1199/CEMIP were identified from the first screen: 07F11C02, 10F01B02 and 01F11A01, and the sequence of these antibodies was obtained (Table 12). One of these clones resulted from the protein immunization and two resulted from the DNA immunization (FIG.

Binder	binding result [1]	binding result [2]	binding result [3]
12D02 (antibody, mouse IgG1, kappa, V domains shown, Mouse monoclonal from hybridoma (second phase screen), IgG1 kappa; also called cAb5775) VH: EVQLQQSGPELVKPGASMKISCKASGYSFTAYTMNWVKQSHGENLEWIGLINPYNGGTTYNQKFKGKATLTVDKSSSTAYMELLSLTSEDSAVYYCASYDYGYAMDYWGQGTSVTVSS VL: DVLMTQTPLSLPVSLGDQASISCRSSQSIVHRNGNTYLEWYLQKPGQSPKLLIYKVSNRFSGVPDRFSGSGSGTDFTLKISRVEAEDLGVYYCFQGSHVPWTFGGGTKLEIKR	binds	binds	–
12A12 (antibody, mouse IgG1, kappa, V domains shown, Mouse monoclonal from hybridoma (second phase screen), IgG1 kappa; also called cAb5776) VH: EVQLQQSGPELVKPGVSMKISCKASGYSFTAYTMNWVKQSHGENLEWIGLINPYNGGTTYNQKFKGKATLTVDKSSSTAYMELLSLTSEDSAVYYCASYDYGYAMDYWGQGTSVTVSS VL: DVLMTQTPLSLPVSLGDQASISCRSSQSIVHRSGNTYLEWYLQKPGQSPKLLIYKVSNRFSGVPDRFSGSGSGTDFTLKISRVEAEDLGVYYCFQGSHVPWTFGGGTKLEIKR	binds	binds	–

More lines, now with the values ahead:

binding result [1]	binding result [2]	binding result [3]	Binder
binds	binds	–	12D08 (antibody, mouse IgG2a, kappa, V domains shown, Mouse monoclonal from hybridoma (second phase screen), IgG2a kappa; also called cAb5777) VH: EVQLQQSGAELVKPGASVKLSCTASGFNIKDTYMHWVKQRPEQGLIWIGNIDPANGHTKYAPKFQGKATITADTSSNTAYLQLSSLTSEDTAVYYCARSNDYDVDFDYWGQGTTLTVSS VL: DIVMSQSPSSLAVSAGEKVTMSCKSSQSLLNSRTRKNYLAWYQQKPGQSPKLLIYWASTRESGVPDRFTGSGSGTDFSLTISSVQAEDLAVYYCKQSYNLYTFGGGTKLEIKR
–	–	binds	07F11C02 (antibody, mouse IgG2a, kappa, V domains shown, Mouse monoclonal purified from hybridoma, IgG2a kappa; also called cAb4853) VH: DVQLVESGGGLVQPGGSRKLSCAASGFAFSSFGMHWVRQAPERGLEWVAYISSASNTIYYADTVKGRFTISRDNPKSTLFLQMTSLRSEDTAIYYCAKRDWDLYAMDYWGQGTSVTVSS VL: DIVMTQSQKFLSTSVGDRVTITCKASQNVGTAVAWYQQKPGQSPELLIYSASNRHTGVPARFTGSGSGTDFTLTITNMQSEDLADYFCQQYSSSPTFGGGTKLESKR
binds	binds	–	13G04 (antibody, mouse IgG1, kappa, V domains shown, Mouse monoclonal from hybridoma (second phase screen), IgG1 kappa; also called cAb5778) VH: EVHLQQSGPELVKPGASMKISCKASGYSFTAYTMNWVKQSHGKNLEWIGLINPYNGGTTYNQKFKGKATLTVDKSSSTAYMELLSLTSEDSAVYYCASYYGGRGWYFDVWGAGTSVTVSS VL: DIVLTQSPASLAVSLGQRATISCRASKSVSTSGYSYVHWYQQKPGQPPKLLIYLASNLESGVPARFSGSGSGTDFTLNIHPVEEEDAATYYCQNSRELPYTFGGGTKLEMKR
